The values that follow come from article PMC3835790, “Statistical Experimental Design Guided Optimization of a One-Pot Biphasic Multienzyme Total Synthesis of Amorpha-4,11-diene” (PLoS ONE, 2013).

Common to all, as to details: 100 mM Tris/HCl pH 7.4, 30°C
Substrate in data set [1]: CC(O)(CCO)CC(=O)O
The data set is described as follows: purified protein.

Substrate in data set [2]: C[C@@](O)(CCOP(=O)(O)O)CC(=O)O
Nature of the data set: initial rates, UPLC-(TOF)MS, double-reciprocal plot. It is filed as biochemical, Saccharomyces cerevisiae. The text has this: initial rates, UPLC-(TOF)MS, double-reciprocal plot on phosphomevalonate kinase (Erg8)

Substrate in data set [3]: C[C@@](O)(CCOP(=O)(O)OP(=O)(O)O)CC(=O)O
Described as above. It is filed as biochemical, Saccharomyces cerevisiae. The text has this: initial rates, UPLC-(TOF)MS, double-reciprocal plot on diphosphomevalonate decarboxylase (Erg19)

The term Km denotes the substrate concentration at which the rate is half of its maximum. As a reminder, the kcat is the maximal rate divided by the concentration of active sites.

B1: mevalonate kinase (Erg12) (Saccharomyces cerevisiae S288C) (protein)
chain: MSLPFLTSAPGKVIIFGEHSAVYNKPAVAASVSALRTYLLISESSAPDTIELDFPDISFNHKWSINDFNAITEDQVNSQKLAKAQQATDGLSQELVSLLDPLLAQLSESFHYHAAFCFLYMFVCLCPHAKNIKFSLKSTLPIGAGLGSSASISVSLALAMAYLGGLIGSNDLEKLSENDKHIVNQWAFIGEKCIHGTPSGIDNAVATYGNALLFEKDSHNGTINTNNFKFLDDFPAIPMILTYTRIPRSTKDLVARVRVLVTEKFPEVMKPILDAMGECALQGLEIMTKLSKCKGTDDEAVETNNELYEQLLELIRINHGLLVSIGVSHPGLELIKNLSDDLRIGSTKLTGAGGGGCSLTLLRRDITQEQIDSFKKKLQDDFSYETFETDLGGTGCCLLSAKNLNKDLKIKSLVFQLFENKTTTKQQIDDLLLPGNTNLPWTS
As for B1, in data set [1], the Km came to 460 ± 153 µM and the kcat is 5.5 s⁻¹.

B2: phosphomevalonate kinase (Erg8) (Saccharomyces cerevisiae S288C) (protein)
chain: MSELRAFSAPGKALLAGGYLVLDTKYEAFVVGLSARMHAVAHPYGSLQGSDKFEVRVKSKQFKDGEWLYHISPKSGFIPVSIGGSKNPFIEKVIANVFSYFKPNMDDYCNRNLFVIDIFSDDAYHSQEDSVTEHRGNRRLSFHSHRIEEVPKTGLGSSAGLVTVLTTALASFFVSDLENNVDKYREVIHNLAQVAHCQAQGKIGSGFDVAAAAYGSIRYRRFPPALISNLPDIGSATYGSKLAHLVDEEDWNITIKSNHLPSGLTLWMGDIKNGSETVKLVQKVKNWYDSHMPESLKIYTELDHANSRFMDGLSKLDRLHETHDDYSDQIFESLERNDCTCQKYPEITEVRDAVATIRRSFRKITKESGADIEPPVQTSLLDDCQTLKGVLTCLIPGAGGYDAIAVITKQDVDLRAQTANDKRFSKVQWLDVTQADWGVRKEKDPETYLDK
notes: 6xHis-tagged, modified pET-11a, expressed in E. coli, Ni-NTA purified; calculated mass 51520
Regarding B2, in data set [2], the Km is 780 ± 280 µM and the kcat was 22 ± 7 s⁻¹.

B3: diphosphomevalonate decarboxylase (Erg19) (Saccharomyces cerevisiae S288C) (protein)
chain: MTVYTASVTAPVNIATLKYWGKRDTKLNLPTNSSISVTLSQDDLRTLTSAATAPEFERDTLWLNGEPHSIDNERTQNCLRDLRQLRKEMESKDASLPTLSQWKLHIVSENNFPTAAGLASSAAGFAALVSAIAKLYQLPQSTSEISRIARKGSGSACRSLFGGYVAWEMGKAEDGHDSMAVQIADSSDWPQMKACVLVVSDIKKDVSSTQGMQLTVATSELFKERIEHVVPKRFEVMRKAIVEKDFATFAKETMMDSNSFHATCLDSFPPIFYMNDTSKRIISWCHTINQFYGETIVAYTFDAGPNAVLYYLAENESKLFAFIYKLFGSVPGWDKKFTTEQLEAFNHQFESSNFTARELDLELQKDVARVILTQVGSGPQETNESLIDAKTGLPKE
notes: 6xHis-tagged, modified pET-11a, expressed in E. coli, Ni-NTA purified; calculated mass 45181
On to B3, for which, in data set [3], the Km stood at 190 ± 52 µM and the kcat came out at 2.8 ± 0.5 s⁻¹.
